Measured values published in the supplement of paper PMC10724198.
± gives the standard deviation of the averaged measurements.

The sequences below were run on Saccharomyces cerevisiae (assay: protein stability index of tFT-peptide fusion (C-terminal peptide) (PSI (0-1 scale)); higher = more stable (slower turnover)). Conditions: genetic background: wild type; temperature: 30 C.
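Also: PSI is a weighted mean of sequencing reads over stability bins, variants kept only with over 10 reads, mCherry proximal and sfGFP distal, peptide attached via GGGS linker.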

LPSPSSLPAPPV and LPSRSLPSPGPP are within error of each other in protein stability index: 0.677 ± 0.031 for the first, 0.714 ± 0.027 for the second.

LPSSSPHPADPS and LPVCVRLSLCDV are within error of each other in protein stability index: 0.643 ± 0.08 for the first, 0.6144 ± 0.004 for the second.

Compared with LPVLCSRVFVSS, LPVLGSFRLIWL is higher in protein stability index: 0.517 ± 0.023 for the first, 0.626 ± 0.016 for the second.

LPVPPPHPPCPL and LQPRLLSIVPYN are within error of each other in protein stability index: 0.6497 ± 0.0036 for the first, 0.635 ± 0.03 for the second.

LQSSSCLLYPSS and LRAHHHSAKFQY are within error of each other in protein stability index: 0.681 ± 0.026 for the first, 0.6608 ± 0.0056 for the second.

LRARMACPLIIS and LRASVFPVLDMC are within error of each other in protein stability index: 0.663 ± 0.025 for the first, 0.718 ± 0.075 for the second.

LRCSVKQNLGIV and LRDTAPEPGPAP are within error of each other in protein stability index: 0.655 ± 0.045 for the first, 0.6895 ± 0.0014 for the second.

Compared with LREETKREDDKQ, LRENKGPAPPLL is lower in protein stability index: 0.814 ± 0.061 for the first, 0.651 ± 0.0087 for the second.

LRFDGKASHSST and LRFRGKSQNDYD are within error of each other in protein stability index: 0.6813 ± 0.0014 for the first, 0.67 ± 0.058 for the second.

Going from LRFTYSFIPPSV to LRGGWVESCGGW, the protein stability index rises from 0.631 ± 0.00064 to 0.669 ± 0.027.

Compared with LRHRAYPKLFPA, LRIILPPLAQPE is lower in protein stability index: 0.708 ± 0.011 for the first, 0.639 ± 0.019 for the second.

Going from LRKNRKHINKKI to LRLATTLFPLSF, the protein stability index rises from 0.626 ± 0.034 to 0.797 ± 0.12.

LRLECESIKRYT and LRLPAPPLASAC are within error of each other in protein stability index: 0.61 ± 0.055 for the first, 0.596 ± 0.006 for the second.

Compared with LRMHFPPHPSSL, LRNGSFFLVFSC is lower in protein stability index: 0.691 ± 0.067 for the first, 0.531 ± 0.016 for the second.

LRPPLRPRPIPL and LRPPPPRGPSPP are within error of each other in protein stability index: 0.6983 ± 0.0036 for the first, 0.689 ± 0.023 for the second.

LRPRPPTLPPSR and LRRAPPSPPPPP are within error of each other in protein stability index: 0.638 ± 0.04 for the first, 0.716 ± 0.054 for the second.

LRRGRLVSSAAF and LRRTKWRTLQAP are within error of each other in protein stability index: 0.802 ± 0.077 for the first, 0.701 ± 0.048 for the second.

LRSGGVPVFWGS and LRSPHPLPPPPP are within error of each other in protein stability index: 0.721 ± 0.043 for the first, 0.732 ± 0.062 for the second.

First: LRSPPPVSHRLP
Second: LRSRVGYVMPVR
The protein stability index of the first is higher: 0.822 ± 0.048 for the first, 0.5988 ± 0.0057 for the second.

Going from LRVKVPLLGLWA to LRYENSQRKELR, the protein stability index rises from 0.557 ± 0.025 to 0.653 ± 0.055.

LSAEAGAGLRAM and LSALPPRPFSYR are within error of each other in protein stability index: 0.684 ± 0.034 for the first, 0.7053 ± 0.004 for the second.

First: LSAPPPPPPPSP
Second: LSATWLKAIVYW
The protein stability index of the first is higher: 0.7026 ± 0.003 for the first, 0.578 ± 0.012 for the second.

LSETTAYLQQAS and LSFDAVSVGFGG are within error of each other in protein stability index: 0.693 ± 0.1 for the first, 0.691 ± 0.064 for the second.

LSGSRAFVTVVL and LSGSTQLLYFFQ are within error of each other in protein stability index: 0.644 ± 0.034 for the first, 0.6651 ± 0.0028 for the second.

LSGTGTIIKARA and LSGVYPQACSRL are within error of each other in protein stability index: 0.67 ± 0.14 for the first, 0.734 ± 0.014 for the second.

LSHMRVSLTRPR and LSHSHLYLFFHH are within error of each other in protein stability index: 0.707 ± 0.029 for the first, 0.6957 ± 0.0027 for the second.

LSIPPSLLSLPL and LSLALGSPGALP are within error of each other in protein stability index: 0.702 ± 0.025 for the first, 0.703 ± 0.07 for the second.

Going from LSLCVVFRAPSR to LSLLLLPPFPHF, the protein stability index rises from 0.686 ± 0.042 to 0.758 ± 0.026.

Compared with LSLLPPPPPPSP, LSLRGRLNYRMM is lower in protein stability index: 0.688 ± 0.011 for the first, 0.647 ± 0.011 for the second.

LSLSPLHRSSFR and LSPGSSPAVSGF are within error of each other in protein stability index: 0.6954 ± 0.0056 for the first, 0.722 ± 0.13 for the second.

LSPGTPVSAPRL and LSPLSHPPSPAP are within error of each other in protein stability index: 0.655 ± 0.029 for the first, 0.6806 ± 0.0014 for the second.

Going from LSPLSVPAPPSP to LSPPLSLPPASP, the protein stability index rises from 0.655 ± 0.027 to 0.731 ± 0.032.

LSPPPRPPLAPP and LSPPPSLSSRPP are within error of each other in protein stability index: 0.65 ± 0.039 for the first, 0.706 ± 0.064 for the second.

LSPPRSPPSRPP and LSPQKRDSAVTR are within error of each other in protein stability index: 0.645 ± 0.029 for the first, 0.638 ± 0.095 for the second.

LSPRSSGCPRWF and LSPTQSTLPTPP are within error of each other in protein stability index: 0.677 ± 0.019 for the first, 0.673 ± 0.01 for the second.

LSQASPGSPRPA and LSRLLVYSRGIV are within error of each other in protein stability index: 0.698 ± 0.011 for the first, 0.629 ± 0.093 for the second.

LSRPTSWLLSFL and LSSARPMNLPPG are within error of each other in protein stability index: 0.777 ± 0.12 for the first, 0.67 ± 0.057 for the second.

LSSGLLIFPIVF and LSSHLHCVTLFT are within error of each other in protein stability index: 0.631 ± 0.031 for the first, 0.606 ± 0.059 for the second.

LSSPCAFTCPLL and LSSPPAPPPPPR are within error of each other in protein stability index: 0.7139 ± 0.0062 for the first, 0.677 ± 0.13 for the second.

LSTPWADPTSSP and LSTSINTIIPGP are within error of each other in protein stability index: 0.716 ± 0.096 for the first, 0.71 ± 0.14 for the second.

Going from LSVFAFRGVFRF to LSVFCALPFVAL, the protein stability index rises from 0.638 ± 0.045 to 0.7026 ± 0.0048.

LSVSLCWRHFFS and LTCRASNGIQAA are within error of each other in protein stability index: 0.693 ± 0.012 for the first, 0.677 ± 0.021 for the second.

LTGCFRSSRRCC and LTGTVQPKLILP are within error of each other in protein stability index: 0.665 ± 0.02 for the first, 0.722 ± 0.051 for the second.

Compared with LTLGAIRLLLRC, LTLGSSGTSFLS is higher in protein stability index: 0.496 ± 0.037 for the first, 0.698 ± 0.016 for the second.

LTLPPACFPRLR and LTLQIWNLVSHL are within error of each other in protein stability index: 0.723 ± 0.059 for the first, 0.599 ± 0.071 for the second.

LTNLGSDRCRLQ and LTSWYGNKLVAV are within error of each other in protein stability index: 0.623 ± 0.0074 for the first, 0.588 ± 0.029 for the second.

LTVIRSRDVIGP and LTVPCSSSFPLL are within error of each other in protein stability index: 0.641 ± 0.055 for the first, 0.647 ± 0.095 for the second.

LTWRVDECPPYS and LVCKRQGQANFI are within error of each other in protein stability index: 0.712 ± 0.038 for the first, 0.689 ± 0.06 for the second.

LVCPFFLSSRIF and LVDAGGSTRGKP are within error of each other in protein stability index: 0.653 ± 0.025 for the first, 0.643 ± 0.0069 for the second.

Going from LVFGGRMRVYRP to LVFGLGSVYLWG, the protein stability index falls from 0.678 ± 0.016 to 0.602 ± 0.059.

Compared with LVFTDDGGVRSL, LVGFGGGGHGVV is higher in protein stability index: 0.609 ± 0.03 for the first, 0.696 ± 0.019 for the second.

LVGPPDPAHAVH and LVGTYTPRFTPC are within error of each other in protein stability index: 0.718 ± 0.031 for the first, 0.643 ± 0.1 for the second.

First: LVHRGRRGSNIE
Second: LVLPTSRPRCFI
The protein stability index of the first is higher: 0.7537 ± 0.0011 for the first, 0.661 ± 0.027 for the second.

LVQTREKIELVS and LVQVGDKRFNRL are within error of each other in protein stability index: 0.643 ± 0.027 for the first, 0.651 ± 0.01 for the second.

First: LVRAWRGGVGGV
Second: LVRCDSSSPLPP
The protein stability index of the first is lower: 0.669 ± 0.0098 for the first, 0.6863 ± 0.0042 for the second.

LVRGKGGRGIEG and LVRMCLFNMHFS are the same in protein stability index: 0.698 ± 0.074 for the first, 0.698 ± 0.018 for the second.

LVRNGLCCTSRQ and LVSACIRFPPSH are within error of each other in protein stability index: 0.704 ± 0.029 for the first, 0.716 ± 0.079 for the second.

LVSFLFAPLPLS and LVSLGLHAGKRI are within error of each other in protein stability index: 0.704 ± 0.038 for the first, 0.70514 ± 0.0004 for the second.

LVVCWGCGLGVL and LVVSPPPLPFPS are within error of each other in protein stability index: 0.71 ± 0.033 for the first, 0.689 ± 0.013 for the second.

LWAQRASPPWYQ and LWCPLLTSFPSY are within error of each other in protein stability index: 0.606 ± 0.047 for the first, 0.726 ± 0.078 for the second.

LWFWAVECGLGG and LWGGGGAGYWVG are within error of each other in protein stability index: 0.713 ± 0.32 for the first, 0.732 ± 0.035 for the second.

LWGYFRTAASFV and LWLLVAPGPPAQ are within error of each other in protein stability index: 0.645 ± 0.095 for the first, 0.682 ± 0.027 for the second.

Going from LWSYFLGLHPSD to LWVESRFVQTFL, the protein stability index falls from 0.773 ± 0.038 to 0.6663 ± 0.0013.

LYKSEGVYTGFW and LYLKKIQQGIIK are within error of each other in protein stability index: 0.729 ± 0.12 for the first, 0.69 ± 0.039 for the second.

Going from LYPEELQATAVY to LYPTISCSARDG, the protein stability index rises from 0.5892 ± 0.00086 to 0.699 ± 0.013.

LYSNVLAAVMTG and MAARGTEQGTMP are within error of each other in protein stability index: 0.623 ± 0.043 for the first, 0.71 ± 0.061 for the second.

Going from MACCGVFISHKT to MAEGRARLWGPS, the protein stability index rises from 0.615 ± 0.026 to 0.701 ± 0.024.

MARIASAQTSLT and MESAGVGRVVWR are within error of each other in protein stability index: 0.688 ± 0.016 for the first, 0.654 ± 0.051 for the second.

MGACGGRVGKFG and MGAVGGLCGMWA are within error of each other in protein stability index: 0.662 ± 0.035 for the first, 0.711 ± 0.029 for the second.

MGCDGSMAPRSL and MGFRSVRGWVSL are within error of each other in protein stability index: 0.6608 ± 0.0029 for the first, 0.699 ± 0.093 for the second.

MGGVEMSNRIWE and MGHKDDRGFADR are within error of each other in protein stability index: 0.663 ± 0.009 for the first, 0.657 ± 0.013 for the second.

MGIVEGIGASSL and MGKSLCLFTQPI are within error of each other in protein stability index: 0.662 ± 0.036 for the first, 0.668 ± 0.09 for the second.

Compared with MGMSAGCGGWSG, MHATWTLRRHGH is lower in protein stability index: 0.6867 ± 0.0055 for the first, 0.523 ± 0.04 for the second.

MIASRVSYDMSY and MICGCLWGSEGR are within error of each other in protein stability index: 0.608 ± 0.043 for the first, 0.627 ± 0.11 for the second.

MIRVRGRQKIEG and MKTNFLDVKILM are within error of each other in protein stability index: 0.724 ± 0.13 for the first, 0.7186 ± 0.0059 for the second.

Compared with MLGLHSDTRRSR, MMEQLCCRRRLF is lower in protein stability index: 0.673 ± 0.022 for the first, 0.496 ± 0.041 for the second.

MMMRKAPTARVS and MNHHSDCLLRLW are within error of each other in protein stability index: 0.637 ± 0.024 for the first, 0.648 ± 0.0084 for the second.

MNNYWKNSTKIK and MNRTDPSRDEKP are within error of each other in protein stability index: 0.737 ± 0.025 for the first, 0.804 ± 0.094 for the second.

MNSDQSGQGLTV and MPKVIIGMSVTK are within error of each other in protein stability index: 0.711 ± 0.011 for the first, 0.687 ± 0.015 for the second.

Compared with MPNQTEARRKWV, MQLPSHFEAWTS is higher in protein stability index: 0.633 ± 0.044 for the first, 0.781 ± 0.03 for the second.
